The text below walks through data of IntAct's records for PubMed 12221107.

To fix the notation:
B1: AP-2 complex subunit beta (Homo sapiens), P63010 (parent)
chain: MTDSKYFTTNKKGEIFELKAELNNEKKEKRKEAVKKVIAAMTVGKDVSSLFPDVVNCMQTDNLELKKLVYLYLMNYAKSQPDMAIMAVNSFVKDCEDPNPLIRALAVRTMGCIRVDKITEYLCEPLRKCLKDEDPYVRKTAAVCVAKLHDINAQMVEDQGFLDSLRDLIADSNPMVVANAVAALSEISESHPNSNLLDLNPQNINKLLTALNECTEWGQIFILDCLSNYNPKDDREAQSICERVTPRLSHANSAVVLSAVKVLMKFLELLPKDSDYYNMLLKKLAPPLVTLLSGEPEVQYVALRNINLIVQKRPEILKQEIKVFFVKYNDPIYVKLEKLDIMIRLASQANIAQVLAELKEYATEVDVDFVRKAVRAIGRCAIKVEQSAERCVSTLLDLIQTKVNYVVQEAIVVIRDIFRKYPNKYESIIATLCENLDSLDEPDARAAMIWIVGEYAERIDNADELLESFLEGFHDESTQVQLTLLTAIVKLFLKKPSETQELVQQVLSLATQDSDNPDLRDRGYIYWRLLSTDPVTAKEVVLSEKPLISEETDLIEPTLLDELICHIGSLASVYHKPPNAFVEGSHGIHRKHLPIHHGSTDAGDSPVGTTTATNLEQPQVIPSQGDLLGDLLNLDLGPPVNVPQVSSMQMGAVDLLGGGLDSLVGQSFIPSSVPATFAPSPTPAVVSSGLNDLFELSTGIGMAPGGYVAPKAVWLPAVKAKGLEISGTFTHRQGHIYMEMNFTNKALQHMTDFAIQFNKNSFGVIPSTPLAIHTPLMPNQSIDVSLPLNTLGPVMKMEPLNNLQVAVKNNIDVFYFSCLIPLNVLFVEDGKMERQVFLATWKDIPNENELQFQIKECHLNADTVSSKLQNNNVYTIAKRNVEGQDMLYQSLKLTNGIWILAELRIQPGNPNYTLSLKCRAPEVSQYIYQVYDSILKN
partner: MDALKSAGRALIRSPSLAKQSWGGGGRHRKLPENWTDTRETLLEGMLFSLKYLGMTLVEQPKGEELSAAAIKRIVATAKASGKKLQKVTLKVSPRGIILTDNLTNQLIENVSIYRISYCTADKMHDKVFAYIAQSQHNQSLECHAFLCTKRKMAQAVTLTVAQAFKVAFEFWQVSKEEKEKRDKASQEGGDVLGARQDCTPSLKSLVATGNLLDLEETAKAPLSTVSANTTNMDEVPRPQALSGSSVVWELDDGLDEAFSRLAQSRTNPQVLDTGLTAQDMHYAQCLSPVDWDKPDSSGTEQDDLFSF
B2: Low density lipoprotein receptor adapter protein 1 (Homo sapiens), Q5SW96 (parent)
chain: B1 partner

Variants of B1 are the subject of one experiment. As to conditions: with arh_human LDLRAP1, Q5SW96.
On to E849A, for which the “effect of a mutation on the interaction” value is “disrupting interaction strength”.

For E902A, the “effect of a mutation on the interaction” value is reported as “decreasing interaction strength”.

Variants of B2 are the subject of the next experiment. To be noted: with ap2b1_human AP2B1, P63010.
Regarding MDALKSAGRALIRSPSLAKQSWGGGGRHRKLPENWTDTRETLLEGMLFSLKYLGMTLVEQPKGEELSAAAIKRIVATAKASGKKLQKVTLKVSPRGIILTDNLTNQLIENVSIYRISYCTADKMHDKVFAYIAQSQHNQSLECHAFLCTKRKMAQAVTLTVAQAFKVAFEFWQVSKEEKEKRDKASQEGGDVLGARQDCTPSLKSLVATGNLLDLEETAKAPLSTVSANTTNMDEVPRPQALSGSSVVWELDDGLDEAFSRLAQSATNPQVLDTGLTAQDMHYAQCLSPVDWDKPDSSGTEQDDLFSF [R266A], the “effect of a mutation on the interaction” value is “disrupting interaction strength”.

Variants of B2 are the subject of a further experiment. As to conditions: with clh1_bovin CLTC.
MDALKSAGRALIRSPSLAKQSWGGGGRHRKLPENWTDTRETLLEGMLFSLKYLGMTLVEQPKGEELSAAAIKRIVATAKASGKKLQKVTLKVSPRGIILTDNLTNQLIENVSIYRISYCTADKMHDKVFAYIAQSQHNQSLECHAFLCTKRKMAQAVTLTVAQAFKVAFEFWQVSKEEKEKRDKASQEGGDVLGARQDCTPSLKSLVATGNLLALAETAKAPLSTVSANTTNMDEVPRPQALSGSSVVWELDDGLDEAFSRLAQSRTNPQVLDTGLTAQDMHYAQCLSPVDWDKPDSSGTEQDDLFSF [D214A;E216A]: the “effect of a mutation on the interaction” value is reported as “disrupting interaction strength”.

Consider MDALKSAGRALIRSPSLAKQSWGGGGRHRKLPENWTDTRETLLEGMLFSLKYLGMTLVEQPKGEELSAAAIKRIVATAKASGKKLQKVTLKVSPRGIILTDNLTNQLIENVSIYRISYCTADKMHDKVFAYIAQSQHNQSLECHAFLCTKRKMAQAVTLTVAQAFKVAFEFWQVSKEEKEKRDKASQEGGDVLGARQDCTPSLKSLVATGNAADLEETAKAPLSTVSANTTNMDEVPRPQALSGSSVVWELDDGLDEAFSRLAQSRTNPQVLDTGLTAQDMHYAQCLSPVDWDKPDSSGTEQDDLFSF [L212A;L213A], for which the “effect of a mutation on the interaction” value was “disrupting interaction strength”.
